The values that follow are results of earlier work, collected in paper PMC7194015, “Proline-Rich Antimicrobial Peptides in Medicinal Maggots of Lucilia sericata Interact With Bacterial DnaK But Do Not Inhibit Protein Synthesis” (Frontiers in Pharmacology, 2020).

The series has as its target DnaK (Escherichia coli) (UniProt P0A6Y8).

Sequence of DnaK (Escherichia coli) (P0A6Y8 2-638): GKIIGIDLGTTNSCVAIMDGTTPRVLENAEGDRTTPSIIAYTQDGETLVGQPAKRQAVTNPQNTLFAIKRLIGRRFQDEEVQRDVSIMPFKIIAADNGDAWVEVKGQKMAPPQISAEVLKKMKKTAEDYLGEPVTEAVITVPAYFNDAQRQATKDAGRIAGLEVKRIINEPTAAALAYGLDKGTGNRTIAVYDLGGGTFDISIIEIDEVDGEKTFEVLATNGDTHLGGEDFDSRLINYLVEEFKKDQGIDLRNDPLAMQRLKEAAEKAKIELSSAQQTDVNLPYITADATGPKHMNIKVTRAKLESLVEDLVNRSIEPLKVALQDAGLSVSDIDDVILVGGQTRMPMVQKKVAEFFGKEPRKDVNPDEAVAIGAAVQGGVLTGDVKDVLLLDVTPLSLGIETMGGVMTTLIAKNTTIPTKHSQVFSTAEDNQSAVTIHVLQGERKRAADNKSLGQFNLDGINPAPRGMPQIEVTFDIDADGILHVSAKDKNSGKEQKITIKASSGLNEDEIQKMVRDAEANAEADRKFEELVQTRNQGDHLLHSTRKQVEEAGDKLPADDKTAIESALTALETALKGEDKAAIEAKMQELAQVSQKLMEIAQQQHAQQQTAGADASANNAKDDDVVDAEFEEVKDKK
Sequence of abaecin (P81463 whole entry): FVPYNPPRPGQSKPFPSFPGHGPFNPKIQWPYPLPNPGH

abaecin (from UniProt P81463): the Kd was 100 nM.
